Measured values: the DeepSol protein solubility set

Assay: soluble on expression in E. coli; label from the status in PepcDB or PDB records

Sequence	soluble on expression in E. coli
MAELACFCYPHLENDSYKFIPFNNLAIKAMLTAKVDKKDMDKFYDSIIYGIAPPPQFKKRYNTNDNSRGMNFETIMFTKVAMLICEALNSLKVTQANVSNVLSRVVSIRHLENLVIRKENPQDILFHSKDLLLKSTLIAIGQSKEIETTITAEGGEIVFQNAAFTMWKLTYLEHQLMPILDQNFIEYKVTLNEDKPISDVHVKELVAELRWQYNKFAVITHGKGHYRIVKYSSVANHADRVYATFKSNVKTGVNNDFNLLDQRIIWQNWYAFTSSMKQGNTLDVCKRLLFQKMKPEKNPFKGLSTDRKMDEVSQVGV	soluble
EERRVAYPVLRELTERTGETSALMVWNGNESMCVEQIPSRHQVKHLAPLGARYNEALSSSVQVFLASENEDRVRQLLRSGSITLTGVDEDAVEAYLLRLKESMERGWAVNFGETSIEEVGVASPVYDHRGNMVASVLIPAPKFRVSQDTLNSLGEACAAAAAKVTTRLGGRAPH	soluble
MMSGGYKSSGVGNDRSQRSVFVGNISYDVSEDTIRSIFSKAGNVLSIKMVHDRETGKPKGYGFIEFPDIQTAEVAIRNLNGYELSGRILRVDSAAGGMNMEEFGSSSNAPAPVEENPYGPECDAGKAPERISQTVASLAPEKMFELMKQLQESLKNNPSELHKFLVEHPQIAYAVLQAAVVMRIVDPQTALGLLHRNKAATLTPFHNTPQGAPPMVQQQQMPMPPKPTFAHPGPSMGPPMGPPMGPPMGHPQAPQYGQNYGQPVAPQQYKPPPQQQPPVQMRPPVQQPQQNHQEEQQNAELLMQVMQLSEHDLQMLPAGDREKIIELRQQLKRNVK	not soluble
MQPTLGAQAGSMLFRDASGRYCASLAGYRFLSAFQPIFYKGGSLFGHEALLRVVDEGGEWRPPDRFLASLAPGMALEADRLARLIHVRNFAQSGQGGCLCLNLMPATVQEDQSGRTHLPLLNSMLQSVELDSGGVIFELPEFDVEHHGQPLLQGMRHAADMGFGLAVDDFGALPARRDKMGELCPDIIKIDRSLLLDYMAGQTQRLPALLEFGWQIGSRMLVEGIETAEQLEAMRALGVELYQGYYLGRPGELPVLRQL	not soluble
MTSKSVATPALDPAFQQLTAFASVHNFILVKGQADKQDLAGYNIPKLKELIVAYHNLYRSKHGAPPLVADPVMDVAAKRWADEMAKSGWISHEKPRKYGENVAMFCQSGCWPLPQTLAQAMVHLFYIEGIGYDYSSFKPELLKENGHFTQIVWKSSRKIGVGISIGKSSQPPYIPTMFHCVKFDPPGNVLAQQYYLSNVQRPTA	not soluble
MSNSEPSTSTPSGKTKKRGKKCETSMGKSKKSKNLPRFVKIQPIFSSEKIKETVCEQGIEECKRMLKGHFNAIKDDYDIRVKDELDTDIKDWLKDASSSVNEYRRRLQENLGEGRTIAKFSFKNCEKYEENDYKVSDSTVTWIKPDRTEEGDLMKKFRAPCSRIEVGDISPPMIYWVPIEQSVATPDQLRLTHMPYFGDGIDDGNIYEHLIDMFPDGIHGFSDNWSYVNDWILYKLCRAALKDYQGSPDVFYYTLYRLWPNKSSQREFSSAFPVLCENFAEKGFDPSSLEPWKKTKIAEGAQNLRNPTCYACLAYTCAIHGFKAEIPIEFPNGEFYNAMLPLPNNPENDGKMCSGNCWKSVTMKEVSEVLVPDSEEILQKEVKIYFMKSRIAKMPIEDGALIVNIYVFNTYIPFCEFVKKYVDEDDEESKIRSCRDAYHLMMSMAENVSARRLKMGQPSNRLSIKDRVNNFRRNQLSQEKAKRKLRHDSLRIQALRDGLDAEKLIREDDMRDSQRNSEKVRMTAVTPITACRHAGPCNATAENCACRENGVCSYMCKCDINCSQRFPGCNCAAGQCYTKACQCYRANWECNPMTCNMCKCDAIDSNIIKCRNFGMTRMIQKRTYCGPSKIAGNGLFLLEPAEKDEFITEYTGERISDDEAERRGAIYDRYQCSYIFNIETGGAIDSYKIGNLARFANHDSKNPTCYARTMVVAGEHRIGFYAKRRLEISEELTFDYSYSGEHQIAFRMVQTKERSEKPSRPKSQKLSKPMTSE	not soluble
MGSDKIHHHHHHMIHTLQAQSNEITIPFAELDLLSHLTSEFEPKLFQQKIERLHQLDPGHPLPGIAKAYAFFHEQNFSAARRQLEQARSETGDHVRAHLLLGLMSEVENFQHEAERHFLDALSLFPEEPSVHRHLAVHYHEREFFGEAASHALQYLKKIGPGGEGTLMTIDMMQSMPGHDEHVLESLYSLLFEIPEHHHDMVFHSIAANNAEMRYELFHQALDGEPDEATVFRLDSMLSLMVEHSMWAAVYDQTKDRMCRTVFDTLCRDLTYRHAGIRSIPLYLTIRSRYFMRCLLHRS	not soluble
AHHHHHHGSKARIIYRASFDAAHAVKIEEWEELHGHTFSLEVVVEGEIKKGYVMDFLKLKKVVDGVVKELDHRNLNKIMDNPTTENIALWISERIRKNLPGDVKLKRLSLWEGNEFGVELEW	soluble
MKPNITWGLQKIQAHGIADNTIYATEGTQIIFTVTSPWIPVFKVNDDVKIALTLTRHEEAWWIINQSTEYCCTVNDQIVEPHHRMRLNEGDLIEWGLSS	not soluble
MEAPTVLDVGCGDGARTLANLPPRSVGLDFSRAGLDLAAETVPDSRLVQGDMGSLPVTTDSVDAITAYHAVFHVQRDQHPEVYREFARVLRPGGTVLMTLPSGQFETVRRGWMGGSMFFSAPGRRATLDQLADAGFTETETVTATDPLGSDSEFVFATLADALEHHHHHH	not soluble
MKRKPAVAGYFYPERKDELYSLLSSFAIPEQHVSGTIIGAVVPHAGIIYSGRTAMYSYRAIEKSAVRDFVIIGPNHRPLTPYASLYPEGEWSTPLGDALINDRMAEALYRDSNYIVKDEESHLMEHSVEVQIPFLQYLFGDGFRFVPVILGDQEIDVARDIGEAIMKIEDPFIFIASSDFTHYEDAKRVEKKDMDLISAILTLDLDKFYSVLEKENVTACGYGAIAALMYYTKKRGGRMIFLNHSNSGDVTGDYSEVVGYASLVSVIPLEHHHHHH	soluble
MDSLNNGWFSELQADLWPGQSFSLKVKEVIHKEKSRFQDIQIVETETYGRCLILDGIIQCTARDEFSYQEMISFLPLCAHPNPKKVLIVGGGDGGVAREVVKHPLVEEVHQVEIDDRVVELSKQYLPAMACGFANEKLKLTIGDGFDYMKKHKNEFDVIITDSSDPIGPAVSLFQESYYELMKHALKDDGIVCSQGGSFWLDLDYIKKTMSGCKEHFAKVAYAVTSVPSYPCGHIGFVMGSLNKNQDFATPKLGKSEIDSIDLRYYSSEVHSAAFALPRWVQKHFYELEHHHHHH	not soluble
MSELLSSVSQQLLAPGGLELDSLPGILHELNGPGIDAADLYFQSQVSESWMLEDGIVKEGSFNLDQGVGVRAQSGEKTGFAYSNAITAEALKQAAVAARSISRAGQNGSVQAFKAVVPARLYAGENPLDVLSRAEKVELLKQIDAATRALDPRIQQVTVSMAGVWEQILVAASDGSLAADIRPLVRFNVSVIVEQNGRRERGGHGGGGRTDYRYFLQEDRAMGYAREALRQALVNLEAIPAPAGTLPVVMGAGWSGVLLHEAVGHGLEGDFNRKGSSAYSGRVGEKVASSLCTIVDDGTLAGRRGSLSVDDEGTPSNCNVLIENGVLKGYMQDKLNARLMGVARTGNGRRESYAHLPMPRMTNTYMLAGESDPQEIIASVEKGIYCANLGGGQVDITSGKFVFSTSEAYLIENGRITTPVKGATLIGNGPEAMSRVSMVGNDLALDSGVGTCGKDGQSVPVGVGQPTLKIDAITVGGTGA	not soluble
MGNQSARQLSTHRKHVVHTWNTINSHDPQLLSDAISEAWLKSAELTPTWVWALVDLPETMHATYKENAQFLNIINQVRDFLNILIKVHKCDPEMIKTLSFRLGARHRHYMNEGNDNCFWAPFAQQLPIAMSKMYMRVVTEDSKIRRILRIRSRAAEKSEEEEVCESWRQFSCMLIESMKRGYEGCASEKTPLRLSITNSIISMASMRSSRSRSASHFLEPNMSPAIAPMCALLGSTESNSTTTTTQPSSPITPYRRRSMFRAGGALQRNSQDFTALRNRRMSSPNNPSILLNNCDIQLLKLTSQLSPLEDQVKQNRVPGRAHQQRRSITLLNFDHHHRARSPTT	not soluble
MPDSPTPGRRERKKAATRQAIADAALQLFLEHGFDRVSVRDVAERADVSTTTLFAHFPSKESLVFDREQEVDAALAAAVRERPDGQGVVEALRAHALESWVPIVTDPRRARFTALVSDTPALREYSERMWMRHADTLSTVIAEELDREPDDSACAALARFVLEIPALTTGRHDPRATVETVFDLLLHGWRSQAGPRPPQADGR	not soluble
MRERLKGVIKKGVKVFFTDESGIHHDPSKVRRLGLYNVPVDYPSRKLNVLASIPLFDGVPCFMSTYSNVNFKIFAEFLRLFRNSGPIVLILDSAKFHKNAYVFSVASQLGITLLFLPPYSPDLNPIEFGGTWFVG	soluble
MAHHHHHHMMKLNRNVLFKKGEKITYSVKSVIFIINVIRTRGEEDDDNNNISGKSILGTSHNNISNIDLSSIPNLDSNIHASFSSDTKEWSPNNLTSKKKKKKKEIRPKDIMSNSDSSNTSSINKQNNNQIKSVLLKENKGVKITGPCNVNLSIFLVPHIYIDVETKYNNIELKYELDEFSDSIKFKDTTTELRTSDDTLMNTNFNVGVSRDTLDKDRLYNICAENKTFKFVVYIKDNILTLKWKVYETGVTNNKVDIRQYKMKELTRPITTIQIHSVSENKDTHLLESKNYVIKTDIPETCDVMATNCFLSGNINIEKCLECTLLVQNNDTSSECFTYVSNDVRENFNQIKAEAEDDENFRNYHLTDTINNILKRIYKINKNEGKKELITLEELDNFLKESITDYCKILREIDTNGTLVNHELGNNVDVFNNLIRLLKLHKNESISTLHNKLRNSAICMKYPDKWIEKKTGLILPNVVNNNIIYNNKYEKLNEEKKRKIYDNKDDSKISDIINIKKYIFTNNTLKYFNNDKQFCNSSFCNRLKDENNCISKIQIEDQGNCAISWIFASKYYLETLKCMKGYEPHAISALYIANCSKRKHKNRCNVGSNPLEFLQIIEENQFLPMDTNYLYSYTKVGNDCPDEEKNWVNLLKHTRMLNYNNKHRSTLSTKAYRAYESEHFKDKMDTFIKLIKDEIMNNGSVIAYVKAENVLGYELNGKNVQNLCGDKTPDHAVNIVGYGNYINDEDEKKSYWIVRNSWGKYWGDEGYFKVDMYGPSTCEDNFIHTVVVFNINMPKSKKSPVKITFPLYNYYLKYSPDFYHNLYYKNFNSKKSMKLVNASDEHKNIYSQEDKVNHKKGSKILNSEVTTSLLSQEISQRRGEDDDIDTLIGDSPDINEQEKNIKDEFNKSSITHNSVSSSNITKSNKNTNKVKIYHIIKHVKNTKIKIGFVKYDNYNTIGTNHTCSRSYSEDQEKHEGCIKFCELHWNECKDKTSPGYCLTKLKGSNECFFCYV	not soluble
MGSDKIHHHHHHMNRLIGEKMNDVLSKVTDKEYLKQIEDVIKFHGHLSGGAFIGIQMYNIAKKVLDIKDTDRVYANCETRNCMPDAFQVLGNCTTGNKRLSIKDYDIMAVTVNKIIPENEVGTGVRIVFDHKKAEKYPALYNWFMNIKKVPHEEVISDLIDAGDSIYSWKSVEIHVSEKKPKFSAVCGLCGESFIKKGTDDENICPNCAEKSAE	not soluble
MSEKMVAIMKTKPGYGAELVEVDVPKPGPGEVLIKVLATSICGTDLHIYEWNEWAQSRIKPPQIMGHEVAGEVVEIGPGVEGIEVGDYVSVETHIVCGKCYACRRGQYHVCQNTKIFGVDTDGVFAEYAVVPAQNIWKNPKSIPPEYATLQEPLGNAVDTVLAGPISGKSVLITGAGPLGLLGIAVAKASGAYPVIVSEPSDFRRELAKKVGADYVINPFEEDVVKEVMDITDGNGVDVFLEFSGAPKALEQGLQAVTPAGRVSLLGLYPGKVTIDFNNLIIFKALTIYGITGRHLWETWYTVSRLLQSGKLNLDPIITHKYKGFDKYEEAFELMRAGKTGKVVFMLK	soluble
